In patent US20240199758A1, “METHOD FOR ALLOWING IMMUNE CELLS INFILTRATION IN TUMORS” (Alethia Biotherapeutics Inc., priority 2021, published 2024):
Where “and” joins values, the source holds several entries; their conditions need not be identical. Equal entries are not always repeated. Entries after “also recorded” stand apart in the source; their conditions may differ.

Legend:
[1] = Non-clinical pharmacokinetics, single and repeat-dose studies in monkeys; assay type: in vivo, Rhesus monkeys
Text: (§1) There was an approximate 70% increase in systemic exposure following repeated dosing from Day 1 to Day 26 which is consistent with the elimination half-life of AB-16B5 and the dosing intervals. […] The sCLU concentrations were generally back to their baseline levels after 3 to 5 days. The concurrent decrease in sCLU concentrations immediately following dosing with AB-16B5 is consistent with an antigen-sink phenomenon.

sCLU = biological target: T1, sCLU (Macaca mulatta, UniProt F6S885); experiment: sCLU serum concentrations after single dose administration; assay type: in vivo; details: Rhesus monkeys
T1 construct: from tissue; host or cells: serum of Rhesus monkeys (in vivo)
T1 sequence (F6S885 22-448): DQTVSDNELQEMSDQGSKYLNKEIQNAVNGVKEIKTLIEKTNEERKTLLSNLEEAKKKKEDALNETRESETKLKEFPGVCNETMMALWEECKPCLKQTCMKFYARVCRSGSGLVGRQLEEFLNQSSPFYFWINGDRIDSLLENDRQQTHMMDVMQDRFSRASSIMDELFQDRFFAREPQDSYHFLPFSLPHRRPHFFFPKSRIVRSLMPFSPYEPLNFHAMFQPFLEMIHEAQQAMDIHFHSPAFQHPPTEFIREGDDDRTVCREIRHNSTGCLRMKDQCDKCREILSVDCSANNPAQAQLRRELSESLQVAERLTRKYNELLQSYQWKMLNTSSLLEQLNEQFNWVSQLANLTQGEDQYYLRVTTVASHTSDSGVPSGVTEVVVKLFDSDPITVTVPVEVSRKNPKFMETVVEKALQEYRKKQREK
Text: as §1

[2] = rhesus monkey, in vivo
[3] = Non-clinical toxicity, weekly administration in rats; assay type: in vivo, Sprague-Dawley rats
Text: This finding most likely reflects a slight antigenic stimulation by AB-16B5 in these 2 regional lymph nodes.

vimentin = experiment: Phase I study: immunohistochemistry on paired tumor biopsies, vimentin; assay type: in vivo, human; details: Subject 007, advanced gastric cancer
Protocol: (§2) Immunohistochemistry studies were conducted on paired tumor biopsies to determine if the treatment with AB-16B5 was associated with a reacquisition of an epithelial phenotype.

[4] = Non-clinical pharmacokinetics, single and repeat-dose studies in rats; assay type: in vivo, Sprague-Dawley rats
Text: as §1

[5] = Phase I study AB-16B5-101: safety and tolerability
Protocol: The dose escalation was performed using 2 dose escalation schemes; the accelerated dose escalation scheme and the standard dose escalation scheme. Only 1 subject was enrolled in each of the first 2 cohorts as per protocol (accelerated dose escalation scheme).
Subjects received AB-16B5 by a 60-minute IV infusion once weekly on Days 1, 8 and 15 of each cycle of treatment.

E-cadherin = experiment: Phase I study: immunohistochemistry on paired tumor biopsies, E-cadherin; assay type: in vivo, human
Protocol: as §2

[6] = tested on: frozen tissues from Rhesus monkey; experiment: Tissue cross-reactivity study, Rhesus monkey tissues; assay type: binding; details: Rhesus monkey tissue panel, 2 and 10 μg/mL
Protocol: In addition, a tissue cross-reactivity study was conducted to determine the potential cross-reactivity of AB-16B5 with frozen tissues from human, Rhesus monkey, and Sprague-Dawley rat tissues.

[7] = Phase I study AB-16B5-101: plasma pharmacokinetics (non-compartmental analysis); assay type: in vivo, human; details: for AUC 0-t / Cmax / Thalf: mean; for AUC 0-t / Cmax / Thalf / Tmax: plasma; for Tmax: median;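 for AUC 0-t: ng·h/mL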
Text: Plasma PK parameters for AB-16B5 were derived from the concentration-time profiles following the first dose of Cycle 1 and the first dose of Cycle 2 using a non-compartmental analysis (NCA) with Phoenix WinNonlin.

[8] = tested on: CA 15-3, CA-125, CA 19-9, CEA, LDH and PSA; experiment: Phase I study: circulating tumor biomarkers; assay type: in vivo, human
Protocol: Several well-established circulating biomarkers were evaluated to monitor the response to therapy. They included CA 15-3, CA-125, CA 19-9, CEA, LDH and PSA.

[9] = Non-clinical toxicity, weekly administration in monkeys

AB-16B5: humanized IgG2 monoclonal antibody targeting sCLU for the inhibition of cancer-associated EMT; light chain SEQ ID NO:11, heavy chain SEQ ID NO:12
systemic exposure versus dose ([1]; monkeys): increased with increasing dose levels in a generally greater than dose proportional manner | peak serum AB-16B5 concentrations ([1]; monkeys, infusion, single and repeat-dose): reached shortly after the start of infusion | systemic exposure once weekly versus twice weekly ([1]; monkeys, repeated dosing): no notable differences in systemic exposure | accumulation for AUC0-72 ([1]; repeated dosing): a lower extent of accumulation was observed | drug accumulation in terms of Cmax ([1]; repeated dosing): no evidence of drug accumulation | sCLU serum concentrations following dosing (sCLU): decreased significantly | emesis during infusion [2]: Few episodes of emesis | signs of overt toxicity [2]: did not result in any signs of overt toxicity | treatment-related effects on body weight, ophthalmology, electrocardiography and organ weight [2]: no treatment-related effects | animals with hepatocellular vacuolation in the liver ([2]; 100 mg/kg): 2 animals | incidence of minimal lymphoid hypercellularity, mandibular lymph node ([3]; rat, in vivo): 1/20 | incidence of minimal lymphoid hypercellularity, mesenteric lymph node ([3]; rat, in vivo): 2/20 | reversibility of lymphoid hypercellularity ([3]; rat, in vivo): complete reversibility | treatment-related clinical signs, changes in body weight, food consumption, ophthalmology, clinical pathology, organ weights ([3]; rat, in vivo): did not result in any treatment-related clinical signs | treatment-related macroscopic changes ([3]; rat, in vivo): no treatment-related macroscopic changes | No Observable Adverse Effect Level (NOAEL) ([3]; rats, weekly administration): 100 mg/kg/dose | vimentin expression after treatment (vimentin): loss of vimentin expression | systemic exposure over 24 hours versus dose [4]: increased with increasing dose levels in a dose proportional manner | increase in systemic exposure following repeated dosing ([4]; Day 1 to Day 26): ~70% | peak serum AB-16B5 concentrations ([4]; infusion, single and repeat-dose): reached shortly after the start of infusion | dose-related trend in the incidence of AEs ([5]; 1.5 to 12.0 mg/kg): no dose-related trend | dose-limiting toxicity ([5]; 1.5 to 12.0 mg/kg once weekly, 15 subjects): No dose-limiting toxicity was observed; also recorded: No dose-limiting toxicities were identified | subjects reporting SAEs ([5]; 5 of 15 subjects): 33% | AEs of Grade 3 to 5 ([5]; 15 subjects): 12 | number of SAEs ([5]; 15 subjects): 6 and 5 | subjects reporting AEs of Grade 3 to 5 ([5]; 15 subjects): 8 subjects | total AEs reported ([5]; 15 subjects, all causalities): 167 | safety and tolerability ([5]; 60-minute IV weekly infusion, doses up to 12 mg/kg): safe and well tolerated | AEs of Grade 3 to 5 related to AB-16B5 ([5]; Grade 3 infusion related reaction and Grade 3 rash): 2 | deaths ([5]; Subjects 004 and 014, associated with progression of the disease): Two deaths were reported | grade of drug-related AEs ([5]; in vivo): mainly of Grade 1 or 2 | most frequently reported AEs (all causalities) ([5]; in vivo): nausea, abdominal pain, back pain, vomiting, chills, dyspnea, constipation and pruritus | most frequently reported AEs related to AB-16B5 ([5]; in vivo): nausea, pruritus, headache and rash | relation of SAEs to AB-16B5 ([5]; in vivo): All SAEs were considered unrelated to AB-16B5; also recorded: none of which were judged related to the study treatment | AEs related (possibly, probably or definitely) to AB-16B5 ([5]; out of 167 AEs): 68 | subjects who discontinued the study due to an adverse event ([5]; two subjects (004 and 011)): 13% | E-cadherin Expression in Post-Treatment (E-cadherin; Subject 006, Breast, biopsy site Skin): Increase | E-cadherin Expression in Post-Treatment (E-cadherin; Subject 007, Gastric, biopsy site Gastric): Increase | E-cadherin Expression in Post-Treatment (E-cadherin; Subject 012, Breast, biopsy site Skin): Decrease | E-cadherin Expression in Post-Treatment (E-cadherin; Subject 013, Prostate, biopsy site Bladder): No change | patients with increased E-cadherin expression after treatment (E-cadherin; paired tumor biopsies): 2 pts | AB-16B5 staining of tissue elements [6]: observed in a number of tissue elements | membrane staining [6]: no membrane staining was observed | AUC 0-t ([7]; Cycle 1, 1.5 mg/kg (N = 1)): 230,321 ng * h/mL | Cmax ([7]; Cycle 1, 1.5 mg/kg (N = 1)): 17,958 ng/mL | Thalf ([7]; Cycle 1, 1.5 mg/kg (N = 1)): 9.35 h | Tmax ([7]; Cycle 1, 1.5 mg/kg (N = 1)): 1.17 h | AUC 0-t ([7]; Cycle 1, 3.0 mg/kg (N = 1)): 645,602 ng * h/mL | Cmax ([7]; Cycle 1, 3.0 mg/kg (N = 1)): 50,736 ng/mL | Thalf ([7]; Cycle 1, 3.0 mg/kg (N = 1)): 7.39 h | Tmax ([7]; Cycle 1, 3.0 mg/kg (N = 1)): 1.08 h | AUC 0-t ([7]; Cycle 1, 6.0 mg/kg (N = 3)): 1,357,773 ng * h/mL | Cmax ([7]; Cycle 1, 6.0 mg/kg (N = 3)): 117,663 ng/mL | Thalf ([7]; Cycle 1, 6.0 mg/kg (N = 3)): 6.99 h | Tmax ([7]; Cycle 1, 6.0 mg/kg (N = 3)): 1.00 h | AUC 0-t ([7]; Cycle 1, 9.0 mg/kg (N = 3)): 2,083,091 ng * h/mL | Cmax ([7]; Cycle 1, 9.0 mg/kg (N = 3)): 162,103 ng/mL | Thalf ([7]; Cycle 1, 9.0 mg/kg (N = 3)): 10.78 h | Tmax ([7]; Cycle 1, 9.0 mg/kg (N = 3)): 2.00 h | AUC 0-t ([7]; Cycle 1, 12.0 mg/kg (N = 7)): 4,045,786 ng * h/mL | Cmax ([7]; Cycle 1, 12.0 mg/kg (N = 7)): 256,977 ng/mL | Thalf ([7]; Cycle 1, 12.0 mg/kg (N = 7)): 11.99 h | Tmax ([7]; Cycle 1, 12.0 mg/kg (N = 7)): 1.12 h | increase of mean Cmax and AUC0-t with the dose ([7]; Cycle 1, dose range of 3.0 to 12.0 mg/kg): dose proportional | AUC 0-t ([7]; Cycle 2, 1.5 mg/kg (N = 1)): 188,584 ng * h/mL | Cmax ([7]; Cycle 2, 1.5 mg/kg (N = 1)): 15,662 ng/mL | Thalf ([7]; Cycle 2, 1.5 mg/kg (N = 1)): 7.97 h | Tmax ([7]; Cycle 2, 1.5 mg/kg (N = 1)): 1.00 h | AUC 0-t ([7]; Cycle 2, 3.0 mg/kg (N = 1)): 688,934 ng * h/mL | Cmax ([7]; Cycle 2, 3.0 mg/kg (N = 1)): 61,466 ng/mL | Thalf ([7]; Cycle 2, 3.0 mg/kg (N = 1)): 6.82 h | Tmax ([7]; Cycle 2, 3.0 mg/kg (N = 1)): 1.05 h | AUC 0-t ([7]; Cycle 2, 6.0 mg/kg (N = 3)): 1,351,156 ng * h/mL | Cmax ([7]; Cycle 2, 6.0 mg/kg (N = 3)): 120,466 ng/mL | Thalf ([7]; Cycle 2, 6.0 mg/kg (N = 3)): 7.70 h | Tmax ([7]; Cycle 2, 6.0 mg/kg (N = 3)): 1.03 h | AUC 0-t ([7]; Cycle 2, 9.0 mg/kg (N = 3)): 2,459,988 ng * h/mL | Cmax ([7]; Cycle 2, 9.0 mg/kg (N = 3)): 163,840 ng/mL | Thalf ([7]; Cycle 2, 9.0 mg/kg (N = 3)): 13.75 h | Tmax ([7]; Cycle 2, 9.0 mg/kg (N = 3)): 1.08 h | AUC 0-t ([7]; Cycle 2, 12.0 mg/kg (N = 7)): 4,147,243 ng * h/mL | Cmax ([7]; Cycle 2, 12.0 mg/kg (N = 7)): 230,268 ng/mL | Thalf ([7]; Cycle 2, 12.0 mg/kg (N = 7)): 21.04 h | Tmax ([7]; Cycle 2, 12.0 mg/kg (N = 7)): 1.04 h | increase of mean Cmax and AUC0-t with the dose ([7]; Cycle 2, dose range of 3.0 to 12.0 mg/kg): dose proportional | systemic exposure versus dose ([7]; across all dose levels): increased in a dose proportional manner | accumulation of AB-16B5 ([7]; between Cycle 1 and Cycle 2): No significant accumulation | level of CEA ([8]; circulating): remained stable or decreased in few patients | tumor biomarker levels ([8]; circulating CA 15-3, CA-125, CA 19-9, CEA, LDH, PSA, correlated with disease progression): increased over time | mean albumin, globulin, A/G and phosphorus levels ([9]; monkeys, 20, 60 and/or 100 mg/kg): Slight changes | NOAEL ([9]; monkeys, weekly administration): 100 mg/kg/dose
